{
  "source": "IntAct's records for PubMed 15070733",
  "key": {"[1]": {"target": "fbw1b_human FBXW11 (UniProt Q9UKB1)", "sequence (Q9UKB1 whole entry)": "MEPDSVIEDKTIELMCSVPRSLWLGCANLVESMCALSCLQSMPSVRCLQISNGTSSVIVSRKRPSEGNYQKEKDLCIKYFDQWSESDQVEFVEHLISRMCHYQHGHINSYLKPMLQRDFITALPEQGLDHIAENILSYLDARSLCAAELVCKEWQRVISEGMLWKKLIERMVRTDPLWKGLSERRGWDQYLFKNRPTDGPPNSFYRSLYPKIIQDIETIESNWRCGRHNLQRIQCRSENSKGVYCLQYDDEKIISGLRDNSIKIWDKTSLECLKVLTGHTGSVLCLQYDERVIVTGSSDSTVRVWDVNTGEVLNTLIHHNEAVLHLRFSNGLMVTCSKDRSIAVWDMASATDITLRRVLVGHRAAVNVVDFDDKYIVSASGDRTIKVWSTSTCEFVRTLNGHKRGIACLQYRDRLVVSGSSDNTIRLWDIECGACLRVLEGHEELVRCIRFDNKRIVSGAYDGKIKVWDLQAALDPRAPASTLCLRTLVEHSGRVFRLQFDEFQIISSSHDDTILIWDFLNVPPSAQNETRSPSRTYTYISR"}, "[2]": {"target": "fbw1a_human BTRC (UniProt Q9Y297)", "sequence (Q9Y297 whole entry)": "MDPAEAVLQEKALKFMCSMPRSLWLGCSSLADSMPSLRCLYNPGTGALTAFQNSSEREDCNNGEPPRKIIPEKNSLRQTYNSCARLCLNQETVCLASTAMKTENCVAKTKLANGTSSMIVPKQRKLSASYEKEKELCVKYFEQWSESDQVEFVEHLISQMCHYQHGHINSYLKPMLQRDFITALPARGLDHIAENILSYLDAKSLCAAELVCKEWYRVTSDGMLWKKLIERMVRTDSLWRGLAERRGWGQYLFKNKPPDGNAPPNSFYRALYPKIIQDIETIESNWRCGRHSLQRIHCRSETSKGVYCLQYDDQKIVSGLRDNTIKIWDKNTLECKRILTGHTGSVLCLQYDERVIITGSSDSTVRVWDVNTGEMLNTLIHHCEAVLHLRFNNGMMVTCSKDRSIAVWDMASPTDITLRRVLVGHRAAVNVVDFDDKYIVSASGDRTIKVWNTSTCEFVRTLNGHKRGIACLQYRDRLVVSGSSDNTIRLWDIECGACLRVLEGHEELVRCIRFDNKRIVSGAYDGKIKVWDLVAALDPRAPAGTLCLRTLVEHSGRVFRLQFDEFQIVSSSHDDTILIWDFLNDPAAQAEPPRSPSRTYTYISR"}},
  "data": [
    {"substance": "Wee1-like protein kinase (Homo sapiens), P30291 D52A;S123A", "values": [
      {"measurement": "effect of a mutation on the interaction", "setting": "[1]", "result": "decreasing interaction"}
    ]},
    {"substance": "Wee1-like protein kinase (Homo sapiens), P30291 E116A;E117A", "values": [
      {"measurement": "effect of a mutation on the interaction", "setting": "[2]", "result": "decreasing interaction"}
    ]},
    {"substance": "Wee1-like protein kinase (Homo sapiens), P30291 S53A;S123A", "values": [
      {"measurement": "effect of a mutation on the interaction", "setting": "[1]", "result": "decreasing interaction"}
    ]},
    {"substance": "Wee1-like protein kinase (Homo sapiens), P30291 S121A", "values": [
      {"measurement": "effect of a mutation on the interaction", "setting": "[2]", "result": "decreasing interaction"}
    ]},
    {"substance": "Wee1-like protein kinase (Homo sapiens), P30291 S123A", "values": [
      {"measurement": "effect of a mutation on the interaction", "setting": "[2]", "result": "decreasing interaction"}
    ]}
  ]
}
